The supplement of paper PMC7877785
± gives the uncertainty stated by the source.

Assay: self-splicing fitness, log relative to wild type (ln ratio); higher = more splicing; Tetrahymena group I intron in knt gene, E. coli kanamycin selection, DiMSum; sequences stand for … in CUCUCU…GGAGGGAAAAGUUAUCAGGCAUGCACCUGGUAGCUAGUCUUUAAACCAAUAGAUUGCAUCGGUUUAAAAGGCAAGACCGUCAAAUUGCGGGAAAGGGGUCAACAGCCGUUCAGUACCAAGUCUCAGGGGAAACUUUGAGAUGGCCUUGCAAAGGGUAUGGUAAUAAGCUGACGGACAUGGUCCUAACCACGCAGCCAAGUCCUAAGUCAACAGAUCUUCUGUUGAUAUGGAUGCAGUUCACAGACUAAAUGUCGGUCGGGGAAGAUGUAUUCUUCUCAUAAGAUAUAGUCGGACCUCUCCUUAAUGGGAGCUAGCGGAUGAAGUGAUGCAACACUGGAGCCGCUGGGAACUAAUUUGUAUGCGAAAGUAUAUUGAUUAGUUUUGGAGUACUCGUGGUCG
Method in brief: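 Fitness was computed with DiMSum as the error-weighted combination of replicate fold changes, kanamycin versus none, each normalised to wild type. The library randomised all eight intron nucleotides of the P1ex region, with the intron placed in the knt kanamycin-resistance gene on pET-22b(+) in E. coli BL21(DE3). Six replicate transformations were grown overnight at 37°C or 30°C on LB agar with or without 25 μg/mL kanamycin, plus 100 μg/mL carbenicillin, 50 μM IPTG and 0.2% rhamnose. Pooled colonies were amplicon-sequenced on an Illumina HiSeq 2500.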

Row | Sequence | self-splicing fitness (ln) (30 °C) | self-splicing fitness (ln) (37 °C)
1 | CGGCAGCAAUAUUACGGCGA | -3.18 ± 0.16 | -2.72 ± 0.18
2 | CGGCAGCAAUAUUACGGCUU | -0.457 ± 0.065 | 0.278 ± 0.095
3 | CGGCAGCAAUAUUACGGUUC | -2.16 ± 0.093 | -0.799 ± 0.098
4 | CGGCAGCAAUAUUACGUAAC | -1.24 ± 0.21 | 
5 | CGGCAGCAAUAUUACGUACU | -0.872 ± 0.052 | -0.714 ± 0.06
6 | CGGCAGCAAUAUUACGUUGA | -2.63 ± 0.19 | -1.8 ± 0.16
7 | CGGCAGCAAUAUUACGUUGC | -3.03 ± 0.27 | -2.57 ± 0.33
8 | CGGGAGCAAUAUUACGACCU | -0.87 ± 0.14 | -0.864 ± 0.18
9 | CGGGAGCAAUAUUACGCAGC | -3.21 ± 0.24 | -2.72 ± 0.43
10 | CGGGAGCAAUAUUACGCGCC |  | -1.51 ± 0.43
11 | CGGGAGCAAUAUUACGGAGC | -2.32 ± 0.37 | -0.632 ± 0.25
12 | CGGGAGCAAUAUUACGGCUA | -2.44 ± 0.39 | 
13 | CGGGAGCAAUAUUACGGGAC | -3.57 ± 0.3 | -3.25 ± 0.4
14 | CGGGAGCAAUAUUACGGGCA |  | -1.14 ± 0.42
15 | CGGGAGCAAUAUUACGGGGU | -2.03 ± 0.42 | 
16 | CGGGAGCAAUAUUACGGGUG | -3.26 ± 0.28 | -2.07 ± 0.28
17 | CGGGAGCAAUAUUACGGUAC | -2.19 ± 0.38 | 
18 | CGGGAGCAAUAUUACGGUUU |  | -1.19 ± 0.32
19 | CGGGAGCAAUAUUACGUAAA | -2.94 ± 0.34 | 
20 | CGGGAGCAAUAUUACGUACU |  | -1.86 ± 0.38
21 | CGGGAGCAAUAUUACGUCAU | -3.09 ± 0.49 | 

Row | Sequence | self-splicing fitness (ln) (30 °C) | self-splicing fitness (ln) (37 °C)
22 | CGGGAGCAAUAUUACGUCCG | -1.07 ± 0.43 | 
23 | CGGGAGCAAUAUUACGUUCA | -3.69 ± 0.25 | -2.53 ± 0.26
24 | CGGGAGCAAUAUUACGUUUC | -3.92 ± 0.46 | 
25 | CGGUAGCAAUAUUACGAAGA | -2.99 ± 0.42 | -2.32 ± 0.29
26 | CGGUAGCAAUAUUACGAUUC | -2.84 ± 0.17 | -1.69 ± 0.13
27 | CGGUAGCAAUAUUACGCAGG | -1.26 ± 0.12 | -1.44 ± 0.18
28 | CGGUAGCAAUAUUACGCCAU | -1.58 ± 0.32 | -2.46 ± 0.39
29 | CGGUAGCAAUAUUACGCCCA | 0.153 ± 0.1 | 0.145 ± 0.17
30 | CGGUAGCAAUAUUACGCGCU | -3.13 ± 0.39 | 
31 | CGGUAGCAAUAUUACGCGUU | -3.55 ± 0.31 | -2.13 ± 0.21
32 | CGGUAGCAAUAUUACGCUCG |  | -2.91 ± 0.43
33 | CGGUAGCAAUAUUACGGCCG | -3.76 ± 0.24 | -0.985 ± 0.2
34 | CGGUAGCAAUAUUACGGCUU | -0.935 ± 0.087 | 0.239 ± 0.12
35 | CGGUAGCAAUAUUACGGGCG | -0.838 ± 0.12 | 0.0595 ± 0.14
36 | CGGUAGCAAUAUUACGGGUU | -3.51 ± 0.21 | -3.67 ± 0.22
37 | CGGUAGCAAUAUUACGUAAU | -3.97 ± 0.47 | 
38 | CGGUAGCAAUAUUACGUCGC | -3.35 ± 0.27 | -2.14 ± 0.22
39 | CGGUAGCAAUAUUACGUCUG | -0.631 ± 0.086 | -0.338 ± 0.11
40 | CGGUAGCAAUAUUACGUGAA | -2.67 ± 0.18 | -1.52 ± 0.19
41 | CGGUAGCAAUAUUACGUUCU | -0.482 ± 0.087 | -0.439 ± 0.1
42 | CGGUAGCAAUAUUACGUUGU | -4.62 ± 0.27 | -2.55 ± 0.15

Row | Sequence | self-splicing fitness (ln) (30 °C) | self-splicing fitness (ln) (37 °C)
43 | CGGUAGCAAUAUUACGUUUC | -2.48 ± 0.32 | 
44 | CGUAAGCAAUAUUACGAAGU | -3.81 ± 0.18 | -2.51 ± 0.17
45 | CGUAAGCAAUAUUACGACCA | -2.11 ± 0.35 | -0.83 ± 0.25
46 | CGUAAGCAAUAUUACGACCU | -1.97 ± 0.17 | -0.549 ± 0.16
47 | CGUAAGCAAUAUUACGACGA | -1.28 ± 0.21 | -1.69 ± 0.24
48 | CGUAAGCAAUAUUACGAGUG | -2.51 ± 0.13 | -0.853 ± 0.1
49 | CGUAAGCAAUAUUACGAUAG | -1.72 ± 0.093 | -0.661 ± 0.11
50 | CGUAAGCAAUAUUACGAUCU | -2.36 ± 0.15 | -0.243 ± 0.11
51 | CGUAAGCAAUAUUACGCAAA |  | -1.48 ± 0.34
52 | CGUAAGCAAUAUUACGCCUA |  | -2.18 ± 0.27
53 | CGUAAGCAAUAUUACGCCUG | -1.21 ± 0.11 | -0.643 ± 0.12
54 | CGUAAGCAAUAUUACGCGCG | -2.79 ± 0.16 | -1.71 ± 0.23
55 | CGUAAGCAAUAUUACGCGGA | -3.23 ± 0.19 | -1.84 ± 0.16
56 | CGUAAGCAAUAUUACGCUUG | -3.54 ± 0.18 | -0.367 ± 0.14
57 | CGUAAGCAAUAUUACGGACC | -0.744 ± 0.11 | -0.0128 ± 0.14
58 | CGUAAGCAAUAUUACGGAGG | -2.16 ± 0.14 | -1.57 ± 0.17
59 | CGUAAGCAAUAUUACGGCAA | -2.37 ± 0.25 | -1.68 ± 0.28
60 | CGUAAGCAAUAUUACGGGAC | -2.9 ± 0.29 | -2.47 ± 0.41
61 | CGUAAGCAAUAUUACGGGCG | -2.87 ± 0.22 | -1.12 ± 0.14
62 | CGUAAGCAAUAUUACGGGGC | -3.43 ± 0.26 | -2.35 ± 0.23
63 | CGUAAGCAAUAUUACGGGGU | -3.79 ± 0.18 | -3.36 ± 0.25

Row | Sequence | self-splicing fitness (ln) (30 °C) | self-splicing fitness (ln) (37 °C)
64 | CGUAAGCAAUAUUACGGUUU | -3.8 ± 0.2 | -2.71 ± 0.17
65 | CGUAAGCAAUAUUACGUACG | -3.57 ± 0.25 | -1.59 ± 0.23
66 | CGUAAGCAAUAUUACGUAGA | -4.43 ± 0.3 | -3.25 ± 0.29
67 | CGUAAGCAAUAUUACGUCCA | -2.61 ± 0.17 | -1.25 ± 0.17
68 | CGUAAGCAAUAUUACGUCUU | -3.7 ± 0.22 | -1.37 ± 0.14
69 | CGUAAGCAAUAUUACGUGAC | -3.04 ± 0.15 | -2.33 ± 0.18
70 | CGUAAGCAAUAUUACGUUAG | -1.34 ± 0.072 | -0.964 ± 0.081
71 | CGUAAGCAAUAUUACGUUUA | -1.69 ± 0.18 | -1.41 ± 0.18
72 | CGUCAGCAAUAUUACGAACG | -2.55 ± 0.17 | -1.32 ± 0.18
73 | CGUCAGCAAUAUUACGACAA | -0.159 ± 0.14 | 0.0303 ± 0.14
74 | CGUCAGCAAUAUUACGACUG | -0.935 ± 0.11 | 0.699 ± 0.13
75 | CGUCAGCAAUAUUACGAGAC | -2.95 ± 0.38 | -1.9 ± 0.32
76 | CGUCAGCAAUAUUACGAUAG | -0.505 ± 0.054 | -0.11 ± 0.074
77 | CGUCAGCAAUAUUACGAUCG | -1.74 ± 0.093 | -1.61 ± 0.11
78 | CGUCAGCAAUAUUACGAUGU | -1.73 ± 0.11 | -1.53 ± 0.098
79 | CGUCAGCAAUAUUACGCACC | -1.51 ± 0.1 | -0.192 ± 0.13
80 | CGUCAGCAAUAUUACGCAUC | -2.47 ± 0.4 | -2.89 ± 0.4
81 | CGUCAGCAAUAUUACGCGCC | -1.58 ± 0.16 | -0.529 ± 0.29
82 | CGUCAGCAAUAUUACGCUCC | -1.3 ± 0.15 | -0.786 ± 0.22
